In the supplement of paper PMC12764529:
± gives the half width of the 95% confidence interval.

Tests used:
[1] = folding stability dG unfold (combined trypsin and chymotrypsin); higher = more stable
How it was run: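 K50 was inferred by Bayesian fitting of sequencing counts obtained after protease digestion of designed mini-proteins. Unfolding free energy was derived by comparison with a sequence-predicted unfolded-state K50 and a shared folded-state K50, for each protease or both combined. The mini-proteins were under 80 residues, had no cysteine, were carried in a PA-tagged cDNA display construct, and were kept only if AlphaFold2 dimer inter-PAE exceeded 15.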

[2] = folding stability dG unfold from trypsin proteolysis; higher = more stable
Protocol: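 Folding stability of de novo designed mini-proteins (<80 aa, no Cys; designed by TrROS, TrMRF, ProteinMPNN and the joint model) was measured by cDNA display proteolysis with trypsin and chymotrypsin. Each protease was used at 11 concentrations in a threefold dilution series plus a no-protease condition. K50 was inferred by Bayesian fitting of sequencing counts, and dG unfold was derived against a sequence-predicted unfolded-state K50 (Tsuboyama et al. method). Sequences shown include variable-length N-terminal GS-type padding (SAGGSAGG...) inside a display construct carrying a PA tag. Rows were kept only if the AF2 dimer inter-PAE was >15, to exclude likely homo-oligomers.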

Sequence | folding stability dG unfold [1] [kcal/mol] | folding stability dG unfold [2] [kcal/mol]
SAGGSAGGSAGMTISLSDLTKKGDIEKAKEEVEEIKKKNPEPKVEKVSVPPEKNEIYKLESAGGSAGGSAGG [r11_365_JUSTAS] | < -1 | -0.308 ± 0.22
SAGGSAGGSAGMTLEEIEELLKKEGIDPSTLGNEKIAEIIKKKNPNTTITSSPEGTGYISKSAGGSAGGSAG [r3_375_JUSTAS] | < -1 | 0.27 ± 0.18
SAGGSAGGSAGMVFPVDGKEVVIDRGADDALRVTVFGPDGSASEAVFPGKDIPTVLKALSSAGGSAGGSAGG [r11_934_TrMRF] | < -1 | -0.23 ± 0.24
SAGGSAGGSAGPEIRVDDLEDGVVRITTVNVDPSTGAPVATTTTTLPRESLSPEVVALLSSAGGSAGGSAGG [r11_376_JUSTAS] | < -1 | 0.046 ± 0.038
SAGGSAGGSAGPEIVLEGKPVELEVVEVGDKPVLIARFPDHYVVIDPEPDVIRLFSSEELSAGGSAGGSAGG [r11_9_TrMRF] | -0.449 ± 0.11 | -0.0154 ± 0.018
SAGGSAGGSAGPKPIRIKVKWRNEKDGEKRKVTIPIPPGMPLEELIKNADPNQVRDVEIVSAGGSAGGSAGG [r11_386_TrROS] | < -1 | -0.276 ± 0.1
SAGGSAGGSAGQPKIGVLKEELIKETYTRPVPDSDETVKEERIVVKIIKKKLNIPENLLLSAGGSAGGSAGG [r17_530_JUSTAS] | < -1 | -0.447 ± 0.27
SAGGSAGGSAGREEVEEAIRAGETVTLEEKSPEGVIPVITVRAEFPDPDKVLVETEVKPLSAGGSAGGSAGG [r11_710_JUSTAS] | -0.646 ± 0.32 | 0.455 ± 0.083
SAGGSAGGSAGSLPEKLKEAFPDLGVTVTSVDPSGTVTVEVDGPEEVKEKVEKAVAEILKSAGGSAGGSAGG [r11_418_JUSTAS] | < -1 | -0.576 ± 0.33
SAGGSAGGSAGSPIPVEVKVTTFGPGGVPREAELLTGDPAAFEKAIGKPLPDGSKVEVLLSAGGSAGGSAGG [r11_671_JUSTAS] | -0.955 ± 0.48 | -0.129 ± 0.083
SAGGSAGGSAGSSLPPDARYTTKVTVKTPFSKTLSLSEYQKLPPSEIKGIEIEKEVVPVESAGGSAGGSAGG [r11_899_JUSTAS] | -0.927 ± 0.92 | -0.198 ± 0.44
SAGGSAGGSAGTTTKITEIKELPTDYVELTMKYPDGTTIKKLIPKSIYKDLPVSSTFSGGSAGGSAGGSAGG [r11_943_JUSTAS] | < -1 | -0.0564 ± 0.14
SAGGSAGGSAGVIEVPIEELENLPDDVKVVPTENTAVIYNEKNPIVVPKNEPVLIAPSDKSAGGSAGGSAGG [r17_91_TrMRF] | < -1 | 0.937 ± 0.051
SAGGSAGGSAKKIDVEVDEPVPNGYYRATIRVPGPGKPIEVNVPGPWEDAERKAKELAKELSAGGSAGGSAG [r3_104_TrROS] | < -1 | -0.964 ± 0.55
SAGGSAGGSAKKTAVIELIDPKDPKPKTITIPFDLKDGKTSLEELKKLVPDYTITSIAVFDDSAGGSAGGSA [r18_494_TrMRF] | < -1 | -0.182 ± 0.15
SAGGSAGGSAKPLTVDEILKNLDFPPNMEIEDIEVDQDENEGKPVISIEMYSPGQPYRPTIVSAGGSAGGSA [r18_354_TrROS] | < -1 | -0.151 ± 0.042
SAGGSAGGSALSPDDVEPIDEEPFHNPGGNPMNIGIWKNPDDGKPFIRNPGNGNPFPADDLSAGGSAGGSAG [r3_181_TrROS] | < -1 | -0.498 ± 0.12
SAGGSAGGSAMKEYVVASRGYDPATGLYSLTIESSEGKKVKNVTFDDPSNPEKAINEAIAKESAGGSAGGSA [r18_479_JUSTAS] | -0.829 ± 0.35 | -0.713 ± 0.34
SAGGSAGGSAMTIQINNLPPEKIEEAADDHGIDTQRNEESDSYYIEMPPNDMDEIKEALGWSAGGSAGGSAG [r3_354_TrROS] | 0.222 ± 0.17 | 0.725 ± 0.052
SAGGSAGGSAPIVRLEFGPVIPLPDMSPDELKEKTAELVPEEYREKIKIVSVLDPDNPKEISAGGSAGGSAG [r3_340_TrMRF] | < -1 | -0.269 ± 0.12
SAGGSAGGSAPKPKIEPVNNTITIDIPPKENVQIFFPNGKQEEFPVEPGKEIKIPPGMYLYPSAGGSAGGSA [r18_452_TrROS] | < -1 | -0.356 ± 0.055
